Results on three molecules are retold here after paper PMC6155051, “Structures of insect Imp-L2 suggest an alternative strategy for regulating the bioavailability of insulin-like hormones” (Nature Communications, 2018).

Series [1] concerns the target Drosophila imaginal morphogenesis protein-late 2 protein (Imp-L2) (Drosophila melanogaster) (UniProt Q09024). The series can be described thus: ITC; Imp-L2 (12.8-22.6 uM) in the cell, hormone about tenfold greater injected; 50 mM Tris, 150 mM NaCl, pH 7.4; 25 C; hormone concentrations adjusted to a 1:1 stoichiometry.
For series [2] the target is unchanged. The series can be described thus: ITC; DILP5:Imp-L2 binding as a function of salt: 300 mM NaCl.
For series [3], the target named is T1, Drosophila imaginal morphogenesis protein-late 2 protein (Imp-L2) (Drosophila melanogaster, UniProt Q09024 26-267).
T1 chain: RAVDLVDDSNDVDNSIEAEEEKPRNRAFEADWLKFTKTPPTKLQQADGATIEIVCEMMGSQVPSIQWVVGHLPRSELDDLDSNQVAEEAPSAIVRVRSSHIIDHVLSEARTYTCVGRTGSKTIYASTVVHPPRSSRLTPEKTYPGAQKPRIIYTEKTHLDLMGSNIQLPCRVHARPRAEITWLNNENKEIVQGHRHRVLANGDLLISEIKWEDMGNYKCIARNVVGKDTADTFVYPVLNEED
Briefly: ITC; 300 mM NaCl (legend says 400 mM).

The target in series [4] is Drosophila imaginal morphogenesis protein-late 2 protein (Imp-L2) (Drosophila melanogaster) (UniProt Q09024). The series can be described thus: ITC; DILP5:Imp-L2 binding as a function of salt: 300 mM NaCl. This is another data set of the same source.
Series [5] concerns the molecule itself. The series can be described thus: SEC-MALS; ligand-free Imp-L2, 1 mg/mL, 50 mM Tris pH 7.4, 50 mM NaCl; Superdex S200 10/300.

In series [1], “Insulin X14 (ProB28Asp), fully monomeric mutant of human insulin (ligand)” displayed a Kd of 135000 pM.

B1: Drosophila insulin-like peptide 5, C4 variant (B2-B29) (ligand)
chain 1: NSLRACGPALMDMLRVACPNGFNSMFAK
chain 2: DFRGVVDSCCRNSCSFSTLRAYCDS
Take B1: the Kd in series [2] worked out at 5 pM; in series [1], 8000 pM; in series [3], 5.4 pM; in series [4], 1 pM.

B2: Drosophila imaginal morphogenesis protein-late 2 protein (Imp-L2) (natural protein, Drosophila melanogaster, UniProt Q09024 26-267, looked up)
chain: RAVDLVDDSNDVDNSIEAEEEKPRNRAFEADWLKFTKTPPTKLQQADGATIEIVCEMMGSQVPSIQWVVGHLPRSELDDLDSNQVAEEAPSAIVRVRSSHIIDHVLSEARTYTCVGRTGSKTIYASTVVHPPRSSRLTPEKTYPGAQKPRIIYTEKTHLDLMGSNIQLPCRVHARPRAEITWLNNENKEIVQGHRHRVLANGDLLISEIKWEDMGNYKCIARNVVGKDTADTFVYPVLNEED
notes: signal peptide in the construct: full-length Drosophila Imp-L2 with the native signal peptide, secreted into the medium; After 3C cleavage, residues of the protease site should remain at the C-terminus (surmised); A selenomethionine-labelled form was also made; the apo structure was solved by MAD; also called Dm Imp-L2; apo-Imp-L2; source: baculovirus-infected Sf9 cells, purified from conditioned …
In the case of B2, the “stoichiometry N” value in series [5] was found to be 2.
